Our source for the pSTAT5 EC50, Treg (human PBMCs) and pSTAT5 Max. Signal, Treg (normalised to V69A/Q74P) values is patent US20210024601A1.

The experiment has as its target CD122/CD132 receptor on cells of human PBMCs (human) (UniProt P14784). Kind of experiment: cell-based or functional assay.

Sequence of CD122/CD132 receptor on cells of human PBMCs (human) (P14784 27-551, chain 1 of 2): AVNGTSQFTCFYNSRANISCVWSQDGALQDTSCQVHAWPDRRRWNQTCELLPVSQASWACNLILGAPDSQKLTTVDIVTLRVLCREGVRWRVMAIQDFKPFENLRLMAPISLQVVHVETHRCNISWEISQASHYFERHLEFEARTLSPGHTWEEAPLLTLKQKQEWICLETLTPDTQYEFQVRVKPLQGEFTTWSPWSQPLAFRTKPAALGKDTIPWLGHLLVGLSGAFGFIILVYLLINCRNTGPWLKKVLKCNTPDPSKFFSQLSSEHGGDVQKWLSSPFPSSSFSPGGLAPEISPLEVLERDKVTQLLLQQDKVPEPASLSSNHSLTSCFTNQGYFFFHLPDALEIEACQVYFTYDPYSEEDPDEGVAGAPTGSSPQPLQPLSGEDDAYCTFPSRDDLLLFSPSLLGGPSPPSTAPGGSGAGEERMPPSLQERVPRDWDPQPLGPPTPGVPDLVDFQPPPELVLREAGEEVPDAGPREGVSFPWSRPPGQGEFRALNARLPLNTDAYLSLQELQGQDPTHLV
Sequence of CD122/CD132 receptor on cells of human PBMCs (human) (P31785 23-369, chain 2 of 2, further chain): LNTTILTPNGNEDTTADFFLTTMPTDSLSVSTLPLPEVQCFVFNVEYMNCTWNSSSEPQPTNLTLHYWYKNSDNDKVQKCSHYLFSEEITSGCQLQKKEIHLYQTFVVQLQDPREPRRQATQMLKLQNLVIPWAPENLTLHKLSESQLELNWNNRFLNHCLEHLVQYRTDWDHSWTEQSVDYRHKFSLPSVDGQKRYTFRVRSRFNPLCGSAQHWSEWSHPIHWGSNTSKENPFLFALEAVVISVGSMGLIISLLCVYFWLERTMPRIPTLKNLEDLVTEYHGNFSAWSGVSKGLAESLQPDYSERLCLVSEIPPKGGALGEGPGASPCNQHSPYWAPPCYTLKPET

As to “C-term N88D: irrelevant antibody with IL-2 N88D fused to its C-terminus (IgG-(IL-2N88D)2 of Peterson et al.)”, the pSTAT5 EC50, Treg (human PBMCs) came to 0.37 nM and the pSTAT5 Max. Signal, Treg (normalised to V69A/Q74P) is 0.5.
